# Earlier results in patent US20040101532A1, “Methods and compositions for heat shock protein mediated immunotherapy of melanoma” (priority 2004, published 2004).
# What was measured:
# gp100 = conditions: detected without extensive preliminary in vitro sensitization
# [1] = system: CD8+ cytotoxic T lymphocytes; conditions: HLA-A*0201-restricted TRP-2 peptides
# tyrosinase = conditions: vaccinated patients, after immunization with the tyrosinase peptide antigen
# [2] = vaccinated patients
sequence,measurement,setting,value
"IMDQVPFSV [gp100:209-217 peptide modified at second position, methionine for threonine]",anti-gp100 T cell reactivity induced by immunization,gp100,induce anti-gp 100 T cell reactivity
"TLDSQVMSL [TRP-2(360-368), HLA-A*0201-restricted TRP-2 peptide]",induction of specific CD8+ cytotoxic T lymphocytes,[1],induced specific CD8+ cytotoxic T lymphocytes
"VMGTLVALV [TRP-2(476-484), HLA-A*0201-restricted TRP-2 peptide]",induction of specific CD8+ cytotoxic T lymphocytes,[1],induced specific CD8+ cytotoxic T lymphocytes
YMDGTMSQV [tyrosinase:368-376 (370D)],increase in T cell responsiveness against tyrosinase by ELISPOT,tyrosinase,Two of nine vaccinated patients showed an increase in T cell responsiveness
same,tolerability in clinical trial,[2],well tolerated with little toxicity
